PMC10786891, “Massively parallel profiling of RNA-targeting CRISPR-Cas13d”
Positions count from the first letter of the chain named. Names and notes keep the numbering of the source.

T1: EsCas13d, nuclease-dead (Eubacterium siraeum, UniProt B0MS50, R295A;H300A;R849A;H854A)
T1 sequence: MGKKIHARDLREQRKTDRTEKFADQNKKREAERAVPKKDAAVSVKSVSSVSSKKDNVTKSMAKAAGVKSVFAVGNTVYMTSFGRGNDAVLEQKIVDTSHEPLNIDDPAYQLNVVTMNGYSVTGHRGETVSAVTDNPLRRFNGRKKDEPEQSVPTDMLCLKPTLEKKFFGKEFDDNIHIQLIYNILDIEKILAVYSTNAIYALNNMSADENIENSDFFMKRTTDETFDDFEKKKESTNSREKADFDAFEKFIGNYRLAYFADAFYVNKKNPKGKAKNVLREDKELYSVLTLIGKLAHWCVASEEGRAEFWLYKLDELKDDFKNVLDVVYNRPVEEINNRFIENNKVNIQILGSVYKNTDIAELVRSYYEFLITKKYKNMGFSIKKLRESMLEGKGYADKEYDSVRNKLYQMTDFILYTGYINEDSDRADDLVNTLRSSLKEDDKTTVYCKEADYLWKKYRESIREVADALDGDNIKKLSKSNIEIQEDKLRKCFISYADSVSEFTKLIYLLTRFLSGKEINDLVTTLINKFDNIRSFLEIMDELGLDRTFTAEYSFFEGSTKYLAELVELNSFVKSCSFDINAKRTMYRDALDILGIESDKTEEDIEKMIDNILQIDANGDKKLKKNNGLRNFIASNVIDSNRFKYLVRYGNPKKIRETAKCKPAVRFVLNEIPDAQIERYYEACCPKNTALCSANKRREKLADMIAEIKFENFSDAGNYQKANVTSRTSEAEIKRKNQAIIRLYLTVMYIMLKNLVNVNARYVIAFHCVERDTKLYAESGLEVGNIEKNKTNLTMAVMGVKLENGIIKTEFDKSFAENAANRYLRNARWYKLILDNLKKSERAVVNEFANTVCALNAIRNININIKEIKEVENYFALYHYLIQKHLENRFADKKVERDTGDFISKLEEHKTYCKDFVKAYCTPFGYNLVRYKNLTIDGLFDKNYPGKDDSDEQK

B1: target 1 C2G,G5A (mixed)
RNA 1: CACCCGUGCAAAAAUGCAGGGGUCUAAAACUGAGCGGAUAACCUCUCUAUGG
RNA 2: GGGAAUGGAUCCACAUCUACGAAUUCGUACCAUAGAGAGGUUAUCCACUGACCGAGAUCGGAAGAGCACACGU
B2: target 1 insC 3' of 18,insA 3' of 3 (mixed)
RNA 1: B1 RNA 1
RNA 2: GGGAAUGGAUCCACAUCUACGAAUUCGUACCAUACGAGAGGUUAUCCGCUACACCGAGAUCGGAAGAGCACACGU
B3: target 1 insU 3' of 9,insC 3' of 3 (mixed)
RNA 1: B1 RNA 1
RNA 2: B2 RNA 2 with C35G, G36A, A37G, G38A, A39G, G41U, U43A, A44U, A51C
B4: target 1 insA 3' of 19 (mixed)
RNA 1: B1 RNA 1
RNA 2: GGGAAUGGAUCCACAUCUACGAAUUCGUACCAUAAGAGAGGUUAUCCGCUCACCGAGAUCGGAAGAGCACACGU
B5: target 1 insA 3' of 22,insG 3' of 16 (mixed)
RNA 1: B1 RNA 1
RNA 2: GGGAAUGGAUCCACAUCUACGAAUUCGUACACAUAGAGGAGGUUAUCCGCUCACCGAGAUCGGAAGAGCACACGU
B6: target 1 insG 3' of 20,insA 3' of 8 (mixed)
RNA 1: B1 RNA 1
RNA 2: B2 RNA 2 with U33G, A34U, C35A, C46A, G48C, C49G, U50C, A51U
B7: target 1 C4A,A18C (mixed)
RNA 1: B1 RNA 1
RNA 2: B1 RNA 2 with A34C, A47G, C48A, G50C
B8: target 1 insG 3' of 8,insA 3' of 3 (mixed)
RNA 1: B1 RNA 1
RNA 2: B2 RNA 2 with C35G, G36A, A37G, G38A, A39G, G41U, U43A, A44U, U45G
B9: target 1 G15C,C21U (mixed)
RNA 1: B1 RNA 1
RNA 2: B1 RNA 2 with C31U, G37C, A47G, G50C
B10: target 1 U11G,G17U (mixed)
RNA 1: B1 RNA 1
RNA 2: B1 RNA 2 with G35U, U41G, A47G, G50C
B11: target 1 insU 3' of 14,insA 3' of 11 (mixed)
RNA 1: B1 RNA 1
RNA 2: GGGAAUGGAUCCACAUCUACGAAUUCGUACCAUAGAGAUGGUAUAUCCGCUCACCGAGAUCGGAAGAGCACACGU
B12: target 1 G5A,U8C (mixed)
RNA 1: B1 RNA 1
RNA 2: B1 RNA 2 with U44C, G50C
B13: target 1 insG 3' of 9,insG 3' of 9 (mixed)
RNA 1: B1 RNA 1
RNA 2: B11 RNA 2 with U39G, G41U, U44G, A45G
B14: target 1 insA 3' of 19,insU 3' of 4 (mixed)
RNA 1: B1 RNA 1
RNA 2: B2 RNA 2 with C35A, A51U
B15: target 1 A1C,C6A (mixed)
RNA 1: B1 RNA 1
RNA 2: B1 RNA 2 with C46A, A47G, G50C, A51C
B16: target 1 C2G,A16G (mixed)
RNA 1: B1 RNA 1
RNA 2: B1 RNA 2 with A36G, A47G
B17: target 1 insU 3' of 20,insG 3' of 18 (mixed)
RNA 1: B1 RNA 1
RNA 2: B5 RNA 2 with A31C, C32A, A33U, A37G, G38A
B18: target 1 insA 3' of 11,insU 3' of 5 (mixed)
RNA 1: B1 RNA 1
RNA 2: B11 RNA 2 with U39G, G41U, U42A, A43U, U44A, A45U, U46C, C48G, G49U
B19: target 1 del14,del16 (mixed)
RNA 1: B1 RNA 1
RNA 2: GGGAAUGGAUCCACAUCUACGAAUUCGUACCAUAGGGGUUAUCCGCUCACCGAGAUCGGAAGAGCACACGU
B20: target 1 A1C,C4U (mixed)
RNA 1: B1 RNA 1
RNA 2: B1 RNA 2 with A47G, C48U, G50C, A51C
B21: target 1 G5A,A9U (mixed)
RNA 1: B1 RNA 1
RNA 2: B1 RNA 2 with A43U, G50C
B22: target 1 A1C,A9G (mixed)
RNA 1: B1 RNA 1
RNA 2: B1 RNA 2 with A43G, A47G, G50C, A51C
B23: target 1 insG 3' of 20,insA 3' of 19 (mixed)
RNA 1: B1 RNA 1
RNA 2: B5 RNA 2 with A31C, C32A, A33G, G36A, A37G, G38A
B24: target 1 complement block 2-14 (mixed)
RNA 1: B1 RNA 1
RNA 2: GGGAAUGGAUCCACAUCUACGAAUUCGUACCAUAGAGUCCAAUAGGCGAGACCGAGAUCGGAAGAGCACACGU
B25: target 1 C6U,C7G (mixed)
RNA 1: B1 RNA 1
RNA 2: B1 RNA 2 with C45G, C46U, A47G, G50C
B26: target 1 insU 3' of 21,insA 3' of 21 (mixed)
RNA 1: B1 RNA 1
RNA 2: B5 RNA 2 with A31C, C32U, U34A, A35U, G36A, A37G, G38A
B27: target 1 insG 3' of 10 (mixed)
RNA 1: B1 RNA 1
RNA 2: B4 RNA 2 with A35G, G36A, A37G, G38A, A39G, G41U, U43G
B28: target 1 A1G,A9G (mixed)
RNA 1: B1 RNA 1
RNA 2: B1 RNA 2 with A43G, A47G, G50C, A51G
B29: target 1 C6U,U19G (mixed)
RNA 1: B1 RNA 1
RNA 2: B1 RNA 2 with U33G, C46U, A47G, G50C

Target: T1, EsCas13d, nuclease-dead
Assay: crRNA (strand 1, pre-loaded); Mg2+; 40 mM Tris-HCl pH 7.5, 150 mM NaCl, 6 mM MgCl2, 1 mM DTT, 0.1% Tween-20, 0.2 mg/ml BSA; 25 C; 10 min per concentration, then washed
Conditions: tags: His6-TwinStrep-SUMO cleaved; N-terminal SNAP kept (SNAP-Surface 488); label: 3' end held by stalled T7 RNA polymerase

| Binder | Kd [nM] |
| --- | --- |
| B1 | 35 ± 5 |
| B2 | 23.9 ± 1.2 |
| B3 | 16.3 ± 1.1 |
| B4 | 15.9 ± 0.7 |
| B5 | 26.3 ± 2.6 |
| B6 | 60 ± 7 |
| B7 | 63 ± 22 |
| B8 | 8.3 ± 0.5 |
| B9 | 9.4 ± 0.7 |
| B10 | 47 ± 5 |
| B11 | 54 ± 10 |
| B12 | 15.3 ± 0.7 |
| B13 | 16.2 ± 0.9 |
| B14 | 17.9 ± 0.9 |
| B15 | 7 ± 0.5 |
| B16 | 33.1 ± 1.6 |
| B17 | 99 ± 21 |
| B18 | 18.7 ± 1.5 |
| B19 | 84 ± 17 |
| B20 | 9.8 ± 1.2 |
| B21 | 29.7 ± 1.8 |
| B22 | 21.2 ± 3.4 |
| B23 | 45 ± 7 |
| B24 | 71 ± 17 |
| B25 | 7.9 ± 0.8 |
| B26 | 22.4 ± 3.3 |
| B27 | 23 ± 1.7 |
| B28 | 12.6 ± 0.5 |
| B29 | 48 ± 11 |
